Measurements: the Human Domainome abundance scans (Beltran et al. 2025)
± gives the uncertainty stated by the source.

B1: KAT8 regulatory NSL complex subunit 2, residues 28 to 91; numbered along this chain, Q9H9L4 (parent)
chain: CAFTHRPCSHPRLEGQEFCIKHILEDKNAPFKQCSYISTKNGKRCPNAAPKPEKKDGVSFCAEH

Variants of: B1
Test: abundance fitness (aPCA) (normalised: wild type 0, dead -1); higher = more abundant; growth selection in yeast, the domain comes from the species named
Conditions: Homo sapiens

Point of comparison: CAFTHRPCSHPRLEGQEFCIKHILEDKNAPFKQCSYISTKNGKRCPNAAPKPEKKDGVSFMAEH [C61M], abundance fitness -0.573 ± 0.067. Against it:
- CAFTHRPCSHPRLEGQEFCIKHILEDKNAPFKQCSYISTKNGKRCPNAAPKREKKDGVSFCAEH [P52R] — higher, -0.144 ± 0.049
- CAFTHRPCSHPRLEGQEFCIKHILEDKNAPFKQCSYISTKNGKRCPNAAPKGEKKDGVSFCAEH [P52G] — higher, -0.068 ± 0.054
- CAFTHRPCSHPRLEGQEFCIKHILEDKNAPFKQCSYISTKNGKRCPNAAPKLEKKDGVSFCAEH [P52L] — higher, -0.106 ± 0.046
- CAFTHRPCSHPRLEGQEFCIKHILEDKNAPFKQCSYISTKNGKRCPNAAPKIEKKDGVSFCAEH [P52I] — higher, -0.136 ± 0.14
- CAFTHRPCSHPRLEGQEFCIKHILEDKNAPFKQCSYISTKNGKRCPNAAPKDEKKDGVSFCAEH [P52D] — higher, -0.077 ± 0.084
- CAFTHRPCSHPRLEGQEFCIKHILEDKNAPFKQCSYISTKNGKRCPNAAPKYEKKDGVSFCAEH [P52Y] — higher, -0.29 ± 0.13
- CAFTHRPCSHPRLEGQEFCIKHILEDKNAPFKQCSYISTKNGKRCPNAAPKMEKKDGVSFCAEH [P52M] — higher, -0.024 ± 0.07
- CAFTHRPCSHPRLEGQEFCIKHILEDKNAPFKQCSYISTKNGKRCPNAAPKSEKKDGVSFCAEH [P52S] — higher, -0.082 ± 0.052
- CAFTHRPCSHPRLEGQEFCIKHILEDKNAPFKQCSYISTKNGKRCPNAAPKPEKKDGVLFCAEH [S59L] — higher, -0.037 ± 0.078
- CAFTHRPCSHPRLEGQEFCIKHILEDKNAPFKQCSYISTKNGKRCPNAAPKPEKKDGVRFCAEH [S59R] — higher, -0.12 ± 0.09
- CAFTHRPCSHPRLEGQEFCIKHILEDKNAPFKQCSYISTKNGKRCPNAAPKPEKKDGVIFCAEH [S59I] — higher, -0.006 ± 0.12
- CAFTHRPCSHPRLEGQEFCIKHILEDKNAPFKQCSYISTKNGKRCPNAAPKPEKKDGVFFCAEH [S59F] — higher, -0.062 ± 0.083
- CAFTHRPCSHPRLEGQEFCIKHILEDKNAPFKQCSYISTKNGKRCPNAAPKPEKKDGVHFCAEH [S59H] — higher, -0.157 ± 0.15
- CAFTHRPCSHPRLEGQEFCIKHILEDKNAPFKQCSYISTKNGKRCPNAAPKPEKKDGVTFCAEH [S59T] — higher, -0.036 ± 0.058
- CAFTHRPCSHPRLEGQEFCIKHILEDKNAPFKQCSYISTKNGKRCPNAAPKPEKKDGVYFCAEH [S59Y] — higher, -0.048 ± 0.081
- CAFTHRPCSHPRLEGQEFCIKHILEDKNAPFKQCSYISTKNGKRCPNAAPKPEKKDGVQFCAEH [S59Q] — higher, -0.045 ± 0.098
- CAFTHRPCSHPRLEGQEFCIKHILEDKNAPFKQCSYISTKNGKRCPNAAPKPEKKDGVGFCAEH [S59G] — higher, -0.024 ± 0.092
- CAFTHRPCSHPRLEGQEFCIKHILEDKNAPFKQCSYISTKNGKRCPNAAPKPEKKDGVPFCAEH [S59P] — higher, -0.141 ± 0.078
- CAFTHRPCSHPRLEGQEFCIKHILEDKNAPFKQCSYISTKNGKRCPNAAPKPEKKDGVCFCAEH [S59C] — higher, -0.089 ± 0.14
- CAFTHRPCSHPRLEGQEFCIKHILEDKNAPFKQCSYISTKNGKRCPNAAPKPEKKDGVNFCAEH [S59N] — higher, -0.189 ± 0.084
- CAFTHRPCSHPRLEGQEFCIKHILEDKNAPFKQCSYISTKNGKRCPNAAPKPEKKDGVAFCAEH [S59A] — higher, -0.056 ± 0.11
- CAFTHRPCSHPRLEGQEFCIKHILEDKNAPFKQCSYISTKNGKRCPNAAPKPEKKDGVVFCAEH [S59V] — higher, -0.095 ± 0.091
- CAFTHRPCSHPRLEGQEFCIKHILEDKNAPFKQCSYISTKNGKRCPNAAPKPEKKDGVMFCAEH [S59M] — higher, -0.084 ± 0.11
- CAFTHRPCSHPRLEGQEFCIKHILEDKNAPFKQCSYISTKNGKRCPNAAPKPEKKDGVEFCAEH [S59E] — higher, -0.243 ± 0.14
- CAFTHRPCSHPRLEGQEFCIKHILEDKNAPFKQCSYISTKNGKRCPNAAPKPEKKDGVWFCAEH [S59W] — higher, 0.01 ± 0.47
- CAFTHRPCSHPRLEGQEFCIKHILEDKNAPFKQCSYISTKNGKRCPNAAPKPEKKDDVSFCAEH [G57D] — higher, -0.138 ± 0.21
- CAFTHRPCSHPRLEGQEFCIKHILEDKNAPFKQCSYISTKNGKRCPNAAPKPEKKDSVSFCAEH [G57S] — within error, -0.372 ± 0.28
- CAFTHRPCSHPRLEGQEFCIKHILEDKNAPFKQCSYISTKNGKRCPNAAPKPEKKDGVSFIAEH [C61I] — within error, -0.499 ± 0.085
- CAFTHRPCSHPRLEGQEFCIKHILEDKNAPFKQCSYISTKNGKRCPNAAPKPEKKDGVSFQAEH [C61Q] — within error, -0.44 ± 0.077
- CAFTHRPCSHPRLEGQEFCIKHILEDKNAPFKQCSYISTKNGKRCPNAAPKPEKKDGVSFTAEH [C61T] — higher, -0.356 ± 0.049
- CAFTHRPCSHPRLEGQEFCIKHILEDKNAPFKQCSYISTKNGKRCPNAAPKPEKKDGVSFKAEH [C61K] — higher, -0.436 ± 0.064
- CAFTHRPCSHPRLEGQEFCIKHILEDKNAPFKQCSYISTKNGKRCPNAAPKPEKKDGVSFWAEH [C61W] — within error, -0.667 ± 0.058
- CAFTHRPCSHPRLEGQEFCIKHILEDKNAPFKQCSYISTKNGKRCPNAAPKPEKKDGVSFSAEH [C61S] — higher, -0.432 ± 0.046
- CAFTHRPCSHPRLEGQEFCIKHILEDKNAPFKQCSYISTKNGKRCPNAAPKPEKKDGVSFGAEH [C61G] — higher, -0.393 ± 0.041
- CAFTHRPCSHPRLEGQEFCIKHILEDKNAPFKQCSYISTKNGKRCPNAAPKPEKKDGVSFAAEH [C61A] — within error, -0.483 ± 0.054
- CAFTHRPCSHPRLEGQEFCIKHILEDKNAPFKQCSYISTKNGKRCPNAAPKPEKKDGVSFNAEH [C61N] — within error, -0.449 ± 0.079
- CAFTHRPCSHPRLEGQEFCIKHILEDKNAPFKQCSYISTKNGKRCPNAAPKPEKKDGVSFEAEH [C61E] — higher, -0.399 ± 0.065
- CAFTHRPCSHPRLEGQEFCIKHILEDKNAPFKQCSYISTKNGKRCPNAAPKPEKKDGVSFRAEH [C61R] — within error, -0.56 ± 0.046
- CAFTHRPCSHPRLEGQEFCIKHILEDKNAPFKQCSYISTKNGKRCPNAAPKPEKKDGVSFVAEH [C61V] — higher, -0.426 ± 0.053
- CAFTHRPCSHPRLEGQEFCIKHILEDKNAPFKQCSYISTKNGKRCPNAAPKPEKKDGVSFHAEH [C61H] — within error, -0.447 ± 0.082
- CAFTHRPCSHPRLEGQEFCIKHILEDKNAPFKQCSYISTKNGKRCPNAAPKPEKKDGVSFFAEH [C61F] — within error, -0.722 ± 0.11
